Laboratory results as given in patent US9993566B2, “SEZ6 modulators and methods of use” (AbbVie Stemcentrx LLC, priority 2013, dated 2018).
Residue numbers refer to the chain shown, from its start.

B1: SC17.36: murine anti-SEZ6 antibody (antibody, V domains shown)
VH: EVQLQESGPSLVKPSQSQSLTCSVTGDSITSDYWNWIRKFPGKKVEYMGYINYSGSTYYNPSLKSRISITRDTSKNQYYLQLNSVTSEDTATYYCARTSYYNKFLPFAYWGQGTLVTVSA
VL: QIVLTQSPALMSASPGEKVTMTCSASSSVSYMYWYQQKPRSSPKPWIYLTSNLASGVPARFSGSGSGTSYSLTISSMEAEDAATYYCQQWSSNPPTFGGGTKLEIK
modifications: Murine SC17.36 VH; Murine SC17.36 VL
notes: murine anti-SEZ6 antibody
B2: SC17.45: murine anti-SEZ6 antibody (antibody, V domains shown)
VH: QVQLQQPGSVLVRPGDSVKLSCKASGYTFTSYWMHWVKQSPGQGLEWIGEIHPHSGSTNYNEKFKGKATLTVDTSSSTAYVDLSSLTSEDSAVYYCVGGHYDYWGQGTTLTVSS
VL: ENVLTQSPAIMSASPGEKVTMTCSASSSVNYMYWYQQKSSTSPKLWIYDTSKLTSGVPGRFSGSGSGNSYSLTISNMEAEDVATYYCFQGSGYPLTFGSGTKLEIK
modifications: Murine SC17.45 VH; Murine SC17.45 VL
notes: murine anti-SEZ6 antibody
B3: SC17.17: murine anti-SEZ6 antibody (antibody, V domains shown)
VH: EVQLQQSGPEVMKPGASVKMSCKASGYTFTDYNMHWVKQNQGKSLEWIGEINPNIGGTGYNQKFKGKATLTVHKSSSTAYMELRSLTSEDSAVYYCARTYSYYSYEFAYWGQGTLVTVSA
VL: QIVLTQSPAIMSASPGEKVTMTCSASSSVSYMHWYQQKSGTSPKRWIYDTSKLPSGVPARFSGSGSGTSYSLTISSMEAEDAATYYCQQWSSTPPTFGAGTKLELK
modifications: Murine SC17.17 VH; Murine SC17.17 VL
notes: murine anti-SEZ6 antibody
B4: SC17.28: murine anti-SEZ6 antibody (antibody, V domains shown)
VH: QVHLPQSRPELVKPGASVKISCKASGYGFTRSYIHWVKQRPGQGLEWIGYISSGSGGTTYNQKFKGKASLTADNPSSTAYMHLSSLTSEDSAIYFCARGGVRYFDVWGAGTTVTVSS
VL: DILLTQSPAILSVSPGEGVSFSCRASQSIGTSIHWYQQRTNGSPRLLIKYASESISGIPSRFSGSGSGTDFTLRINSLESEDIADYYCQQSNSWPLTFGAGTKLELK
modifications: Murine SC17.28 VH; Murine SC17.28 VL
notes: murine anti-SEZ6 antibody
B5: SC17.102: murine anti-SEZ6 antibody (antibody, V domains shown)
VH: EVQLQQSGPELMKPGASVKMSCKASGDTFTDYNIHWVKQNQGKSLEWIGEVNPNIGGIGYNQKFKGKATLTVDKSSSTAYMELRSLTSEDSAVYYCAMGRWYFDVWGAGTTVTVSS
VL: B3 VL with P54A, A59P, S64R, Q89H, T93N, L105M
modifications: Murine SC17.102 VH; Murine SC17.102 VL
notes: murine anti-SEZ6 antibody
B6: SC17.121: murine anti-SEZ6 antibody (antibody, V domains shown)
VH: EVQLQQSGPELMKPGASVKMSCKASGYTFTDHNIHWVKQHQGKSLEWIGEINPNTGGTGYNQKFQGKATMTVDKSSSTAYMELRSLTSEDSAVYYCVRGLYFFDYWGQGTTLTVSS
VL: B3 VL with P54A, A79T, S92N, A99S, G100V, L105I
modifications: Murine SC17.121 VH; Murine SC17.121 VL
notes: murine anti-SEZ6 antibody
B7: SC17.156: murine anti-SEZ6 antibody (antibody, V domains shown)
VH: QVTLKESGPGILQPSQTLSLTCSFSGFSLSTSGMGVSWIRKTSGKGLEWLAHIFWDDDKWYNPSLKSRLTISKATSSNQVFLILTSVDTADTATYYCATFYGLYFAYWGQGTTLTVSS
VL: DVVMTQSPLSLPVSLGDQASISCRSSQSIVHSNGNTYLEWYLQKPGQSPKLLIYKVSNRFSGVPDRFSGSGSGTDFTLKISRVEAEDLGVYYCFQGSHVPPTFGGGTKLEIK
modifications: Murine SC17.156 VH; Murine SC17.156 VL
notes: murine anti-SEZ6 antibody
B8: SC17.166: murine anti-SEZ6 antibody (antibody, V domains shown)
VH: EVQLQQSGPELMKPGASVKMSCKASGYIFTDYNMHWVKQNQGKSLEWIGEVNPNTGGIGYNQKFKGKATLTVDKSSSTAYMDLRSLTSEDSAVYYCARDGNYCFDYWGQGTTLTVSS
VL: B3 VL with V29I, P54A, S76N, A99G, L105I
modifications: Murine SC17.166 VH; Murine SC17.166 VL
notes: murine anti-SEZ6 antibody
B9: SC17.191: murine anti-SEZ6 antibody (antibody, V domains shown)
VH: EVQLQQSGPELMKPGASVKMSCKASGYTFTDYNMHWVKQNQGKSLEWIGEINPNTGGTGYNQKFKDKATLTVDKSSSTAYMELRSLTSEDSAVYYCARIPSLRRYYFDYWGQGTTLTVSS
VL: B3 VL with P54A, S62T, T93S
modifications: Murine SC17.191 VH; Murine SC17.191 VL
notes: murine anti-SEZ6 antibody
B10: SC17.4: murine anti-SEZ6 antibody (antibody, V domains shown)
VH: QIQLVQSGPELKKPGETVKISCKASGYTFTDYSMHWVKQAPGKGLKWLGWINTETGEPTYSEDFKGRFAFSLETSASTAYLQINNLKNEDTATYFCVKNKGWFAYWGQGTLVTVSA
VL: DIKMTQSPSSMYASLGERVTITCKASQDINSYLTWFQQKPGKSPKTLIYRANRLIDGVPSRFSGSGSGQDYSLTISSLDYEDMGIYYCLQYDDFPWTFGGGTKLEIK
modifications: Murine SC17.4 VH; Murine SC17.4 VL
notes: murine anti-SEZ6 antibody

Key:
Format in all cases: binding
[1] = system: cynomolgus SEZ6; assay: Flow cytometry cross reactivity, yeast displaying extracellular domain of cynomolgus SEZ6; conditions: 5 μg/mL antibody
Experimental: (§1) In this regard flow cytometry was performed using a FACSCanto II as per the manufacturer's instructions in order to confirm that selected SC17 antibody modulators can immunospecifically associate with human SEZ6 and to determine whether the same modulators cross-react with cynomolgus, rat and/or murine SEZ6 in addition to SEZ6L and SEZ6L2. More particularly modulators were tested for cross reactivity to murine SEZ6 and rat SEZ6 by flow cytometry against Neuro2a (ATCC Cat # CCL131), and RIN-m5F (ATCC cat # CRL-11605) cell lines which express mouse SEZ6 and rat SEZ6, respectively. For examining cross reactivity to cynomolgus SEZ6, yeast displaying the extracellular domain of cynomolgus SEZ6 (Boder et al, 1997) were used for flow cytometry analysis.
(§2) Briefly 1×10^5 cells per well of Neuro2a, RIN-5mF, or yeast displaying cynomolgus SEZ6 cells were incubated for 30 minutes with 50 μL PBS (2% FCS) buffer with 5 μg/mL antibody. Cells were washed twice with the same buffer and then incubated with 50 μL per sample DyLight 649 labeled goat-anti-mouse IgG, Fc fragment specific secondary diluted 1:200 in PBS buffer. After incubating for 15 minutes cells were washed twice with the PBS buffer and re-suspended in the same with DAPI for flow cytometry analysis of Neuro2a and Rin-m5F or buffer without DAPI for flow cytometric analysis of yeast cells with cSEZ6.

[2] = molecular target: T1, SEZ6 ECD (Homo sapiens, UniProt Q53EL9); assay: Fine epitope mapping (phage display peptide library or yeast-displayed SEZ6 ECD mutants); conditions: epitope conformational (discontinuous) or linear
T1 construct: SEZ6 extracellular domain (amino acids 1-904); expressed in transfected cells; host or cells: yeast (surface display, Cochran et al. protocol)
Experimental: Epitopes were classified either as conformational (i.e. discontinuous) or linear. Yeast displaying the SEZ6 ECD construct was heat treated for 30 minutes at 80° C. in order to denature the antigen, washed twice in ice-cold PBSA and then subjected to the same staining protocol and flow cytometry analysis as described above. Antibodies that bound to both the denatured and native yeast were classified as binding to a linear epitope, whereas antibodies that bound native yeast but not denatured yeast were classified as conformationally specific.
Fine epitope mapping was further performed on selected antibodies to determine the specific amino acids to which they bound. Antibodies that bound to a linear epitope were mapped using the Ph.D.-12 phage display peptide library kit (New England Biolabs E8110S). The antibody selected for epitope mapping was coated onto a Nunc MaxiSorp tube (Nunc) at 50 μg/mL in 3 mL 0.1 M sodium bicarbonate solution, pH 8 and incubated overnight. The tube was blocked with 3% BSA solution in bicarbonate solution. Then, 10^11 input phage in PBS+0.1% Tween-20 was allowed to bind, followed by ten consecutive washes with 0.1% Tween-20 to wash away non-binding phage. Remaining phage were eluted with 1 mL 0.2 M glycine for 10 minutes at room temperature with gentle agitation, followed by neutralization with 150 μL 1 M Tris-HCl pH 9. Eluted phage were amplified and panned again with 10^11 input phage, using 0.5% Tween-20 during the wash steps to increase selection stringency. DNA from 24 plaques of the eluted phage from the second round was isolated using the Qiaprep M13 Spin kit (Qiagen) and sequenced. Binding of clonal phage was confirmed using an ELISA assay, where the mapped antibody or a control antibody was coated onto an ELISA plate, blocked, and exposed to each clone phage. Phage binding was detected using horseradish peroxidase conjugated anti-M13 antibody (GE Healthcare), and the 1-Step Turbo TMB ELISA solution (Pierce). Phage peptide sequences from specifically binding phage were aligned using Vector NTI (Life Technologies) against the antigen ECD peptide sequence to determine the epitope of binding.
Selected antibodies that bound to a discontinuous epitope were mapped using the technique described by Chao et al. (2007). Libraries of SEZ6 ECD mutants were generated with error prone PCR using nucleotide analogues 8-oxo-2′deoxyguanosine-5′-triphosphate and 2′-deoxy-p-nucleoside-5′triphosphate (both from TriLink Bio) for a target mutagenesis rate of one amino acid mutation per clone. These were transformed into a yeast display format. Using the technique described above for domain-level mapping, the library was stained for c-myc and antibody binding at 50 nM. […] These clones were re-grown, and subjected to another round of FACS sorting for loss of binding to the target antibody. Using the Zymoprep Yeast Plasmid Miniprep kit (Zymo Research), individual ECD clones were isolated and sequenced. Where necessary, mutations were reformatted as single-mutant ECD clones using the Quikchange site directed mutagenesis kit (Agilent).
Individual ECD clones were next screened to determine whether loss of binding was due to a mutation in the epitope, or a mutation that caused misfolding. Mutations that involved cysteine, proline, and stop codons were automatically discarded due to the high likelihood of a misfolding mutation. Remaining ECD clones were then screened for binding to a non-competing, conformationally specific antibody. ECD clones that lost binding to non-competing, conformationally specific antibodies were concluded to contain misfolding mutations, whereas ECD clones that retained equivalent binding as wild type SEZ6 ECD were concluded to be properly folded. Mutations in the ECD clones in the latter group were concluded to be in the epitope. […]

[3] = system: rat SEZ6; assay: Flow cytometry cross reactivity, RIN-m5F cells; conditions: 5 μg/mL antibody
Experimental: as §1, §2

[4] = molecular target: T2, SEZ6L2 (Homo sapiens, UniProt Q6UXD5, INS830AYEELLDNRKLEV); assay: ELISA cross reactivity to family member SEZ6L2; set-up: key to binds SEZ6 family member SEZ6L2 (dagger): *: antibodies that bind SEZ6 family members SEZ6L and SEZ6L2 are designated with an asterisk and/or a dagger, respectively; †: antibodies that bind SEZ6 family members SEZ6L and SEZ6L2 are designated with an asterisk and/or a dagger, respectively
T2 construct: IgK signal peptide (N, cleaved yes); made in house; host or cells: HEK-293T or CHO-S
Experimental: To determine cross reactivity to family member proteins, SEZ6L and SEZ6L2, an ELISA-based assay was used. Plates were coated with SEZ6, SEZ6L, or SEZ6L2 proteins at 0.2 μg/mL in PBS overnight. After washing with PBS containing 0.05% (v/v) Tween 20 (PBST), the wells were blocked with 2% (w/v) BSA in PBS (PBSA), 100 μL/well for 1 hour at room temperature. Antibody was then added at 1 μg/mL in 100 μL PBSA for 1 hour at room temperature. After washing with PBST, 100 μL/well HRP-labeled goat anti-mouse IgG diluted 1:2,000 in PBSA for 1 hour at room temperature. The plates were washed and 100 μL/well of the TMB substrate solution (Thermo Scientific 34028) was added for 15 minutes at room temperature. After developing, an equal volume of 2M H2SO4 was added to stop substrate development and analyzed by spectrophotometer at OD 450. […] As discussed above, such pan-SEZ6 antibodies are compatible with the teachings herein and may be used in conjunction with the disclosed methods.

T1 sequence (Q53EL9 20-923): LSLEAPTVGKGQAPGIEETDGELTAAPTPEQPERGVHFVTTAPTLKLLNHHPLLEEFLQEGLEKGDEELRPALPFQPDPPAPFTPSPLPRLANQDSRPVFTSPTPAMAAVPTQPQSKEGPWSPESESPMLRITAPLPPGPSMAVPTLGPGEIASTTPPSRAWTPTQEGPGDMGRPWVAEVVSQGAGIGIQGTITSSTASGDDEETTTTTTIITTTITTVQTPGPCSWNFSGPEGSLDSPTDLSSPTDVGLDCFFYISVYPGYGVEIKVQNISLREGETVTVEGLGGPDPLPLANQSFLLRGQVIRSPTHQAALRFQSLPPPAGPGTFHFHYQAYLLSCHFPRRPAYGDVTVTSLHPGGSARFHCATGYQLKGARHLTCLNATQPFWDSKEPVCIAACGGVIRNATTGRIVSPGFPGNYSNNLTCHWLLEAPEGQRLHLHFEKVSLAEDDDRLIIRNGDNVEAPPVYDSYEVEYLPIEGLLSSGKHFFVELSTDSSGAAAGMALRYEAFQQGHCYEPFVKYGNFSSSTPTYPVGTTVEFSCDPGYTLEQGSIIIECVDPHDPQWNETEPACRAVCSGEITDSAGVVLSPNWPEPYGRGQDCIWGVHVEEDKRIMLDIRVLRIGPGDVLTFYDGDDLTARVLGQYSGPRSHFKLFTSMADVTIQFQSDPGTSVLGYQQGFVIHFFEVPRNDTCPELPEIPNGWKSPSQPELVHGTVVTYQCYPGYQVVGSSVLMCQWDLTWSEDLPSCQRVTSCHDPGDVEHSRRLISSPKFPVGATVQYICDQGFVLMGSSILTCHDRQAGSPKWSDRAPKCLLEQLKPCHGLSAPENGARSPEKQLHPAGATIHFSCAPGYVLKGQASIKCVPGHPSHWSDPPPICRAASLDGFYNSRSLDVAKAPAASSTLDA
rat SEZ6, sequence (as listed by the source): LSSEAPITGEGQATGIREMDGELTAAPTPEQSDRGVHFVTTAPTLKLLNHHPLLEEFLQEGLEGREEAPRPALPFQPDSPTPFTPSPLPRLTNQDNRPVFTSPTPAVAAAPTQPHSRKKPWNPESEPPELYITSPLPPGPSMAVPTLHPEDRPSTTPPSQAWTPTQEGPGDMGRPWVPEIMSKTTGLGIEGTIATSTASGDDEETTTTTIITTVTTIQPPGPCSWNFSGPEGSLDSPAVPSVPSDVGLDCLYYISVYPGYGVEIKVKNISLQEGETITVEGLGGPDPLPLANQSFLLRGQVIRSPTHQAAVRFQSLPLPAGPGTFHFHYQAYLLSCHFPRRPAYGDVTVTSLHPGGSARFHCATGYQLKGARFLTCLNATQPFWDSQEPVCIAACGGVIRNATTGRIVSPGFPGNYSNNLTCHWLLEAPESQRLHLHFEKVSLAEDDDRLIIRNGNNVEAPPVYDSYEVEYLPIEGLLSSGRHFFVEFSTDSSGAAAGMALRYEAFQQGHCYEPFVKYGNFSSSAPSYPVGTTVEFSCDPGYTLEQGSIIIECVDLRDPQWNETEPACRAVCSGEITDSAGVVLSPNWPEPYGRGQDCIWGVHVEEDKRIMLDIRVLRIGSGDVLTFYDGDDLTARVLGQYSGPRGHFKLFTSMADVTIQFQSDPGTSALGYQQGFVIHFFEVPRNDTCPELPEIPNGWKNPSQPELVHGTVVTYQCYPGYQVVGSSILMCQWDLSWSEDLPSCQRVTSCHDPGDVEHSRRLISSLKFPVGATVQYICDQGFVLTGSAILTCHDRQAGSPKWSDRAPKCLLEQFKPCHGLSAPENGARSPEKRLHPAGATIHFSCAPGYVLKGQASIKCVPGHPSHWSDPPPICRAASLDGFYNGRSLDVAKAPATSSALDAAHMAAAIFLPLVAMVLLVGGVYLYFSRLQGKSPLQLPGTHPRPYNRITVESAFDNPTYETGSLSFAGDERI
T2 sequence (Q6UXD5 with tags, fused parts or gaps with the stated changes): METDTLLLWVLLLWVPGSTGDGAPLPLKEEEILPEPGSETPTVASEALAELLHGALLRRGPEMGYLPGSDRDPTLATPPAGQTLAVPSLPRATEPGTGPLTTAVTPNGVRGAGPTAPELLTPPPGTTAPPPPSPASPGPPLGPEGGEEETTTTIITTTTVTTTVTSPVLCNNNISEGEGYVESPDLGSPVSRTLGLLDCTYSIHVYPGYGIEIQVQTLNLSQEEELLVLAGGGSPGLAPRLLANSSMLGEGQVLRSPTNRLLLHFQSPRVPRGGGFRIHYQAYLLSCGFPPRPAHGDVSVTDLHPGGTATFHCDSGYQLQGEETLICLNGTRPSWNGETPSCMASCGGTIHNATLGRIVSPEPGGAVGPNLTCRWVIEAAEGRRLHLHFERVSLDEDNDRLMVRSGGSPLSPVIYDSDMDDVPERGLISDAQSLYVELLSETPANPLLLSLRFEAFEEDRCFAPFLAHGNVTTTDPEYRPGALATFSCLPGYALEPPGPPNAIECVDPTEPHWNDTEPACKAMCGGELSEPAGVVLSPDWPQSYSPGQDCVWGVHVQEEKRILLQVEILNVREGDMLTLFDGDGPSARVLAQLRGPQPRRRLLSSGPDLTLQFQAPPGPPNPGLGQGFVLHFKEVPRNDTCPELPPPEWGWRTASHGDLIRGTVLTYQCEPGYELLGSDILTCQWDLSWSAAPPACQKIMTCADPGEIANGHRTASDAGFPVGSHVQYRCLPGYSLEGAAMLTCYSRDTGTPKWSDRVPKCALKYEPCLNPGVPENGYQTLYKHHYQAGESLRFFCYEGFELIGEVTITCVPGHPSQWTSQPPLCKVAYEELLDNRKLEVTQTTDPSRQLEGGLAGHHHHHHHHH

| Molecule | cross reactivity to cynomolgus SEZ6 [1] | Discontinuous [2] | also measured |
| --- | --- | --- | --- |
| B1 | cross reactive | Yes |  |
| B2 | cross reactive |  |  |
| B3 | cross reactive | Yes | cross reactivity to rat SEZ6 [3]: cross reactive |
| B4 |  |  | cross reactivity with SEZ6L2 ([4]; ELISA, antibody 1 μg/mL): cross-reactive; binds SEZ6 family member SEZ6L2 (dagger) ([4]; mark in Table 5): SC17.6^†, SC17.28^†, SC17.103, SC17.109, SC17.119,; cross reactivity to rat SEZ6 [3]: cross reactive |
| B5 |  | Yes |  |
| B6 |  | Yes |  |
| B7 |  | Yes |  |
| B8 |  | Yes |  |
| B9 |  | Yes |  |
| B10 |  | No |  |
